Data published in the supplement of paper PMC10567573.

B1: NETO1 (parent)
chain: KTSLLDQLTNTSGTVIGVTSCIVI
B2: TRIM29 (parent)
chain: RKCPVHGKTMELFCQTDQTCICYL
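Also: lentivirally expressed fusions sorted by FACS into six bins by GFP to DsRed ratio, PSI derived from sequencing read proportions per bin multiplied by bin number.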

Variants of: B1
Assay: protein stability index of a GFP-peptide fusion (GPS, HEK-293T) (PSI 1-6); higher = more stable
Conditions: c terminus: a fixed tail appended
In the case of MTSLLDQLTNTSGTVIGVTSCIVI [K1M], the protein stability index is reported as 3.4. For STSLLDQLTNTSGTVIGVTSCIVI [K1S], the protein stability index was 3. YTSLLDQLTNTSGTVIGVTSCIVI [K1Y] showed a protein stability index of 2.37. For FTSLLDQLTNTSGTVIGVTSCIVI [K1F], the protein stability index was 3.08. For PTSLLDQLTNTSGTVIGVTSCIVI [K1P], the protein stability index was 3.02. Variant QTSLLDQLTNTSGTVIGVTSCIVI [K1Q] has a protein stability index of 2.81. In the case of HTSLLDQLTNTSGTVIGVTSCIVI [K1H], the protein stability index is reported as 2.11. With WTSLLDQLTNTSGTVIGVTSCIVI [K1W] the protein stability index was 3.48. RTSLLDQLTNTSGTVIGVTSCIVI [K1R] gave a protein stability index of 1.61. In the case of LTSLLDQLTNTSGTVIGVTSCIVI [K1L], the protein stability index is reported as 2.67. Variant GTSLLDQLTNTSGTVIGVTSCIVI [K1G] has a protein stability index of 2.6. NTSLLDQLTNTSGTVIGVTSCIVI [K1N] gave a protein stability index of 2.53. With ITSLLDQLTNTSGTVIGVTSCIVI [K1I] the protein stability index was 2.82. For ETSLLDQLTNTSGTVIGVTSCIVI [K1E], the protein stability index was 3.07. Variant KYSLLDQLTNTSGTVIGVTSCIVI [T2Y] has a protein stability index of 3.38. Variant KNSLLDQLTNTSGTVIGVTSCIVI [T2N] has a protein stability index of 2.4. KVSLLDQLTNTSGTVIGVTSCIVI [T2V] showed a protein stability index of 2.68. With KWSLLDQLTNTSGTVIGVTSCIVI [T2W] the protein stability index was 2.31. In the case of KCSLLDQLTNTSGTVIGVTSCIVI [T2C], the protein stability index is reported as 1.93. Variant KKSLLDQLTNTSGTVIGVTSCIVI [T2K] has a protein stability index of 2.64. Work on KGSLLDQLTNTSGTVIGVTSCIVI [T2G] yielded a protein stability index of 3.08. With KPSLLDQLTNTSGTVIGVTSCIVI [T2P] the protein stability index was 3.5. Variant KESLLDQLTNTSGTVIGVTSCIVI [T2E] has a protein stability index of 2.12. KISLLDQLTNTSGTVIGVTSCIVI [T2I] gave a protein stability index of 3.34. In the case of KASLLDQLTNTSGTVIGVTSCIVI [T2A], the protein stability index is reported as 3.1. Variant KSSLLDQLTNTSGTVIGVTSCIVI [T2S] has a protein stability index of 2.57. In the case of KHSLLDQLTNTSGTVIGVTSCIVI [T2H], the protein stability index is reported as 2.98. In the case of KMSLLDQLTNTSGTVIGVTSCIVI [T2M], the protein stability index is reported as 2.76. KRSLLDQLTNTSGTVIGVTSCIVI [T2R] showed a protein stability index of 3.11. For KFSLLDQLTNTSGTVIGVTSCIVI [T2F], the protein stability index was 3.71. KDSLLDQLTNTSGTVIGVTSCIVI [T2D] gave a protein stability index of 3.94. KQSLLDQLTNTSGTVIGVTSCIVI [T2Q] gave a protein stability index of 2.94. KLSLLDQLTNTSGTVIGVTSCIVI [T2L] gave a protein stability index of 2.58. KTLLLDQLTNTSGTVIGVTSCIVI [S3L] gave a protein stability index of 2.17. For KTHLLDQLTNTSGTVIGVTSCIVI [S3H], the protein stability index was 2.43. KTWLLDQLTNTSGTVIGVTSCIVI [S3W] showed a protein stability index of 2.56. With KTTLLDQLTNTSGTVIGVTSCIVI [S3T] the protein stability index was 2.61. Work on KTQLLDQLTNTSGTVIGVTSCIVI [S3Q] yielded a protein stability index of 3.04. Variant KTYLLDQLTNTSGTVIGVTSCIVI [S3Y] has a protein stability index of 3.56. Work on KTMLLDQLTNTSGTVIGVTSCIVI [S3M] yielded a protein stability index of 3.37. With KTVLLDQLTNTSGTVIGVTSCIVI [S3V] the protein stability index was 2.39. In the case of KTCLLDQLTNTSGTVIGVTSCIVI [S3C], the protein stability index is reported as 3.27. KTELLDQLTNTSGTVIGVTSCIVI [S3E] showed a protein stability index of 2.86. In the case of KTDLLDQLTNTSGTVIGVTSCIVI [S3D], the protein stability index is reported as 2.46. KTNLLDQLTNTSGTVIGVTSCIVI [S3N] showed a protein stability index of 2.57. Variant KTGLLDQLTNTSGTVIGVTSCIVI [S3G] has a protein stability index of 1.92. In the case of KTILLDQLTNTSGTVIGVTSCIVI [S3I], the protein stability index is reported as 3.45. With KTFLLDQLTNTSGTVIGVTSCIVI [S3F] the protein stability index was 2.59. KTRLLDQLTNTSGTVIGVTSCIVI [S3R] showed a protein stability index of 3.26. KTPLLDQLTNTSGTVIGVTSCIVI [S3P] showed a protein stability index of 2.58. KTKLLDQLTNTSGTVIGVTSCIVI [S3K] gave a protein stability index of 2.88. For KTALLDQLTNTSGTVIGVTSCIVI [S3A], the protein stability index was 3.59. KTSDLDQLTNTSGTVIGVTSCIVI [L4D] gave a protein stability index of 2.7. KTSFLDQLTNTSGTVIGVTSCIVI [L4F] showed a protein stability index of 2.99. With KTSSLDQLTNTSGTVIGVTSCIVI [L4S] the protein stability index was 1.85. Variant KTSQLDQLTNTSGTVIGVTSCIVI [L4Q] has a protein stability index of 3.64. Work on KTSELDQLTNTSGTVIGVTSCIVI [L4E] yielded a protein stability index of 2.94. Variant KTSALDQLTNTSGTVIGVTSCIVI [L4A] has a protein stability index of 2.65. KTSKLDQLTNTSGTVIGVTSCIVI [L4K] gave a protein stability index of 2.57. With KTSILDQLTNTSGTVIGVTSCIVI [L4I] the protein stability index was 4.14. With KTSHLDQLTNTSGTVIGVTSCIVI [L4H] the protein stability index was 3.14. With KTSTLDQLTNTSGTVIGVTSCIVI [L4T] the protein stability index was 3.56. In the case of KTSGLDQLTNTSGTVIGVTSCIVI [L4G], the protein stability index is reported as 4.07. Variant KTSRLDQLTNTSGTVIGVTSCIVI [L4R] has a protein stability index of 2.34. Work on KTSPLDQLTNTSGTVIGVTSCIVI [L4P] yielded a protein stability index of 2.67. Work on KTSWLDQLTNTSGTVIGVTSCIVI [L4W] yielded a protein stability index of 3.2. For KTSNLDQLTNTSGTVIGVTSCIVI [L4N], the protein stability index was 2.6. For KTSMLDQLTNTSGTVIGVTSCIVI [L4M], the protein stability index was 2.19. For KTSVLDQLTNTSGTVIGVTSCIVI [L4V], the protein stability index was 3.28. For KTSCLDQLTNTSGTVIGVTSCIVI [L4C], the protein stability index was 2.08.

Variants of: B2
Assay: as above
Conditions: c terminus: a fixed tail appended
RKCPVHGKTMELFCQTDQTCICYE [L24E] gave a protein stability index of 4.75. Work on RKCPVHGKTMELFCQTDQTCICYR [L24R] yielded a protein stability index of 4.89. With RKCPVHGKTMELFCQTDQTCICYQ [L24Q] the protein stability index was 5.07. With RKCPVHGKTMELFCQTDQTCICYS [L24S] the protein stability index was 5.39. For RKCPVHGKTMELFCQTDQTCICYC [L24C], the protein stability index was 4.74. RKCPVHGKTMELFCQTDQTCICYW [L24W] gave a protein stability index of 4.47. RKCPVHGKTMELFCQTDQTCICYA [L24A] showed a protein stability index of 5.02. RKCPVHGKTMELFCQTDQTCICYT [L24T] gave a protein stability index of 5.36. With RKCPVHGKTMELFCQTDQTCICYN [L24N] the protein stability index was 4.57. RKCPVHGKTMELFCQTDQTCICYM [L24M] showed a protein stability index of 4.34. With RKCPVHGKTMELFCQTDQTCICYH [L24H] the protein stability index was 4.59. In the case of RKCPVHGKTMELFCQTDQTCICYF [L24F], the protein stability index is reported as 4.64. For RKCPVHGKTMELFCQTDQTCICYP [L24P], the protein stability index was 5.26. Work on RKCPVHGKTMELFCQTDQTCICYV [L24V] yielded a protein stability index of 4.34. For RKCPVHGKTMELFCQTDQTCICYY [L24Y], the protein stability index was 3.86. Work on RKCPVHGKTMELFCQTDQTCICYK [L24K] yielded a protein stability index of 4.82. For RKCPVHGKTMELFCQTDQTCICYD [L24D], the protein stability index was 5.58. Work on RKCPVHGKTMELFCQTDQTCICYI [L24I] yielded a protein stability index of 4.21. Variant RKCPVHGKTMELFCQTDQTCICYG [L24G] has a protein stability index of 5.15. Variant RKCPVHGKTMELFCQTDQTCMCYL [I21M] has a protein stability index of 2.36. For RKCPVHGKTMELFCQTDQTCKCYL [I21K], the protein stability index was 2.02. For RKCPVHGKTMELFCQTDQTCHCYL [I21H], the protein stability index was 2.98. In the case of RKCPVHGKTMELFCQTDQTCYCYL [I21Y], the protein stability index is reported as 3.25. RKCPVHGKTMELFCQTDQTCNCYL [I21N] showed a protein stability index of 2.52.
